Assay: label from the status in PepcDB records

Sequence	protein production
MSLAKISKIEAQKRKGRYNIYLDGKYAFPVAESVLIQFRLMKGTELDEKQIAAIATADQQAKAYSRMLDYLSYQMRTESDIVKKLKEIDTPEEFVEPILKKLRGQQLIDDHAYAASYVRTMINTDLKGPGIIRQHLRQKGIGESDIDDALTQFTPEVQAELAKKLALKLFRRYRNQPERRREQKVQQGLTTKGFSSSVYEMIKDEVVPQPDLEEGHHHHHH	not failed
MSLALRGELVVDKTKRKKRRELSEEQKQEIKDAFELFDTDKDQAIDYHELKVAMRALGFDVKKADVLKILKDYDREATGKITFEDFNEVVTDWILERDPHEEILKAFKLFDDDDSGKISLRNLRRVARELGENMSDEELRAMIEEFDKDGDGEINQEEFIAIMTGDI	not failed
MSLANWYLDNESSRLSFTSTKNADIAEVHRFLVLHGKVDPKGLAEVEVETESISTGIPLRDERLREQVFQVHKFPVAQINAQLDMRPINNLAPGAQLELRLPLTVSLRGKSHSYNAELLATRLDERRFQVVTLEPLVIHAQDFDMVSDFNALRNAAGLSAVSLSVPVGAVLIFTAREGHHHHHH	not failed
MSLARTEKIYIYGASGHGLVCEDVAKNMGYKECIFLDDFKGMKFESTLPKYDFFIAIGNNEIRKKIYQKISENGFKIVNLIHKSALISPSAIVEENAGILIMPYVVINAKAKIEKGVILNTSSVIEHECVIGEFSHVSVGAKCAGNVKIGKNCFLGINSCVLPNLSLADDSILGGGATLVKNQDEKGVFVGVPAKRMEGGSHHHHHH	not failed
MSLASFPHRNLTWNDINFVHTTDTHGWYSGHINQPLYHANWGDFISFTTHMRRIAHSRNQDLLLIDSGDRHDGNGLSDITSPNGLKSTPIFIKQDYDLLTIGNHELYLWENSKQEYETVVNHFQDKYVCSNVDIRLDNGLFVPLGLKYKYFTTPIRGIRVMAFGFLFDFKRFNSGTRVTPMAETIHEPWFQEALKHEVDLIIIVGHTPISHNWGEFYQVHQYLRQFFPDTIIQYFGGHSHIRDFTVFDSLSTGLQSGRYCETVGWTSVNLDKADLNLPVRQRFSRSYIDFNTDSFKYHTNLDKEFDTAKGKLVSKLIRETRKELKLDTLIGYVKTNYYVDYVPIDHPKSIFNLLALKILKTLPKSKHEERITIINTGSIRYDLYKGPYTIDSKFIVSPFENIWVNITVPKSVATKVAAKLNDADYISASRLKPPHQYDLQVQDLSTSPHQAHFEMQEKLPKGYVTHDDFGADGDDTLHRAVVNFPVPNVIQSVEINDEVDSPVNLVFYSFITPNIIWALKELNFSTEQVPTPYSDIYLGTLLNEFVANNEGHHHHHH	not failed
MSLAVTMFKRARAEIFDRNREVGISNVTTAASLVTFPVLAGILGGVVPSVRTPSAAMVSGVQHFAAGIVMAAVAGEVLPDLRSRGPLWLIVVGFSAGVAVLVALRRFDGHGEHQDGDDVGELPVGFLTVVAVDLFIDGLLVATGATVSSRTAIIITIALTVEVLFLGLAVALRLAGSGMPRIRAAATTSALSLVIAVGGVSGAVALGRAGNTVLTLVLAFAAGALLWLVVEELLVEAHETPERPWMAVMFFAGFLILYGLGVME	failed
MSLCRWAAYHGTPIFLEDVISRPGHSLIAQSAHAEECKTATNGDGFGVAWYDARPEPGLYRDVYPAWSDPNLRAVAHHVRSGLFLSHVRASTGSCISRNNCHPFAARRWCFMHNGQVGGFEAFRKQADMAIADEFYTYRKGSTDSEVLFLLALSEGLEHDPHGALARAIARLEGLSRAHGTTPHMRLSAAFSDGQTLYAARYSSDHIAPSVYYRYSHARQGWAVVSEPLETDEGDWTELRPGRMLTIGAEGAAERDFAPADLGRAAEGHHHHHH	not failed
MSLDRTTQQPFGNGYLSVEQANLILNHLPLEITFVNKDDIFQYYNDSVPAAEMVFKRTPSQVGRNVELCHPPKVLDKVKKVFELLRNGQRDKVNMWFQSERLGKFVYVTYAAVRDQAGDFQGVLEYVQDIKPFFELDSEFNRDEGHHHHHH	not failed
MSLDSDPDTLVVHTQLGTTAPGSPTYLAAVDRFREENPGVKIKNLVNGDDLAQVYETSRLARKEADVVMVNLYDKTLAWTDVGATVDVKPYLDDWGLRGRVLPAALADWTDDEGRVRAFPYFATNWPVAYNRALLDRAGVDAIPTTGDQLIAAARKLRAKGIAPVTVGGNDWTGQKLLAQIIQTFLSQDEARHVYSTGDFGVRGARLGIEYFAHLRDAGVFADKAQGLTSDSMTTQFNTEEAAVQSAMSSALAKVPEKVAGHTEVGGWPLADGAAHDGPTVIRAYTLIGFWISPNGVRKIEQVEKFLRFMYRPDVVARFVTESGRDMALRTDAVSTGFPLVGAAQRLGSEVSQVLLPDVYVPPAAAQPLITATSTSFTRGTSPARVRAALESAYRSVEGHHHHHH	not failed

From a protein production outcome set (Wang et al. 2014)
